Measured values published in patent US20190351015.

How the values were obtained:
[1] = target: Nkx3.2 (42-333)
[2] = target: Nkx3.2 (99-330)
[3] = target: Nkx3.2 (112-333)
[4] = target: Nkx3.2 (130-320)
[5] = target: Nkx3.2 (99-327)
[6] = target: Nkx3.2 (153-318)
[7] = target: Nkx3.2 (110-324)
[8] = target: Nkx3.2 (112-320)
[9] = target: Nkx3.2 (162-312)
[10] = target: Nkx3.2 (159-314)
[11] = target: Nkx3.2 (1-307)
[12] = target: Nkx3.2 (1-333)
[13] = target: Nkx3.2 (99-333)
[14] = target: Nkx3.2 (123-320)
[15] = target: Nkx3.2 (105-327)
[16] = target: Nkx3.2 (165-310)
[17] = target: Nkx3.2 (150-320)
[18] = target: Nkx3.2 (123-333)
[19] = target: Nkx3.2 (156-316)
[20] = target: Nkx3.2 (99-320)
[21] = target: Nkx3.2 (1-320)

B1: Siah1 (protein)
chain: MSRQTATALPTGTSKCPPSQRVPALTGTTASNNDLASLFECPVCFDYVLPPILQCQSGHLVCSNCRPKLTCCPTCRGPLGSIRNLAMEKVANSVLFPCKYASSGCEITLPHTEKADHEELCEFRPYSCPCPGASCKWQGSLDAVMPHLMHQHKSITTLQGEDIVFLATDINLPGAVDWVMMQSCFGFHFMLVLEKQEKYDGHQQFFAIVQLIGTRKQAENFAYRLELNGHRRRLTWEATPRSIHEGIATAIMNSDCLVFDTSIAQLFAENGNLGINVTISMC
Degradation by Siah1 [1]: +++ | Degradation by Siah1 [2]: +++ | Degradation by Siah1 [3]: ++ | Degradation by Siah1 [4]: - | Degradation by Siah1 [5]: +++ | Degradation by Siah1 [6]: - | Degradation by Siah1 [7]: +++ | Degradation by Siah1 [8]: - | Degradation by Siah1 [9]: ++ | Degradation by Siah1 [10]: ++ | Degradation by Siah1 [11]: - | Degradation by Siah1 [12]: +++ | Degradation by Siah1 [13]: ++ | Degradation by Siah1 [14]: - | Degradation by Siah1 [15]: ++ | Degradation by Siah1 [16]: ++ | Degradation by Siah1 [17]: - | Degradation by Siah1 [18]: - | Degradation by Siah1 [19]: ++ | Degradation by Siah1 [20]: + | Degradation by Siah1 [21]: +
